Tested on: high-mobility group box 1 (HMGB1)
Sequence (chain, as listed by the source): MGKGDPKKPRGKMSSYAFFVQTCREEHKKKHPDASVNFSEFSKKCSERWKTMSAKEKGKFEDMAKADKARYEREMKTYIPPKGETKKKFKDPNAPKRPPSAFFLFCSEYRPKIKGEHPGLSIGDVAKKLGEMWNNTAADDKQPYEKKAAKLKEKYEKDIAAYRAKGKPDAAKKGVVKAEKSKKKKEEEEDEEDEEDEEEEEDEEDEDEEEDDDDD

## MAGE-A3/6-TRIM28 E3 ubiquitin ligase
  in vitro ubiquitination reactions on protein microarrays containing >9000 recombinant proteins (screen for direct substrates of MAGE-A): As a significantly ubiquitinated target of the MAGE-TRIM28 complex, high-mobility group box 1 (HMGB1) emerged
